Experimental data from article PMC13147308 (2025).

Experiments:
Assay in all cases: ITC; Tris buffer
[1] = molecular target: T1, Staphylococcus aureus Cas9, full length, His-tagged (Staphylococcus aureus, UniProt J7RUA5 1-1053)
T1 chain: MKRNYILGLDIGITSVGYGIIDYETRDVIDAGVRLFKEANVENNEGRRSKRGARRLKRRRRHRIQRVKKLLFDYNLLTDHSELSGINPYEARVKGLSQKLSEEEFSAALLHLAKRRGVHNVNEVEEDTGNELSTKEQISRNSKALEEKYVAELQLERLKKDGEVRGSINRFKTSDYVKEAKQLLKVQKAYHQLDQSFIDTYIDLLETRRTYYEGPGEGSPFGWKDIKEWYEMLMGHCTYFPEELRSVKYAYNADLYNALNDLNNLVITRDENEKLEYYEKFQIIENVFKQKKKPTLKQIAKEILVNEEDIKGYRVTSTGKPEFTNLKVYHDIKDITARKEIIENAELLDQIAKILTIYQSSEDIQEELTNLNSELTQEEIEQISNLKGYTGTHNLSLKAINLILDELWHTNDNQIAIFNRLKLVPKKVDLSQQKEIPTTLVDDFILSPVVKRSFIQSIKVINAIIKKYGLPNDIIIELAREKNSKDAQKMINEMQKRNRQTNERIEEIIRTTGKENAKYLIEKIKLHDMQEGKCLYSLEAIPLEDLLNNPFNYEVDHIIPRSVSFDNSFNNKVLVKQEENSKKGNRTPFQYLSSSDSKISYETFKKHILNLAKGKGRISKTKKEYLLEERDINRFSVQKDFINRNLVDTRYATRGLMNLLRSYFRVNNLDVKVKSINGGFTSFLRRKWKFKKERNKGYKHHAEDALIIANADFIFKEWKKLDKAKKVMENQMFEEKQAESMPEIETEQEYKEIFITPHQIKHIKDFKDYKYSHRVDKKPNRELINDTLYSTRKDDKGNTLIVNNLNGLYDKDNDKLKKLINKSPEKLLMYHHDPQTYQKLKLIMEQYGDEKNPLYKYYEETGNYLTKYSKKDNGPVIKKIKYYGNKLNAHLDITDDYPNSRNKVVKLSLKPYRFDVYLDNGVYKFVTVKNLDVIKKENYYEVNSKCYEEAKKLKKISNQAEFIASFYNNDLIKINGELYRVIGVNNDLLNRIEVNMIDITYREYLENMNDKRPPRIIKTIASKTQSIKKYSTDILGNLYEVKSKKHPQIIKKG

[2] = molecular target: T2, SauCas9 PI (PAM-interacting) domain, His-tagged (Staphylococcus aureus)
T2 chain: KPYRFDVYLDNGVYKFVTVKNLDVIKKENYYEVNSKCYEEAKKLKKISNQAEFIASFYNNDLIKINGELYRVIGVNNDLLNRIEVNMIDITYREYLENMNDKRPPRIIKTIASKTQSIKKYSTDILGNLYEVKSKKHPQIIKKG

[3] = molecular target: T3, SauCas9 WED-PI domain construct, His-tagged (Staphylococcus aureus)
T3 chain: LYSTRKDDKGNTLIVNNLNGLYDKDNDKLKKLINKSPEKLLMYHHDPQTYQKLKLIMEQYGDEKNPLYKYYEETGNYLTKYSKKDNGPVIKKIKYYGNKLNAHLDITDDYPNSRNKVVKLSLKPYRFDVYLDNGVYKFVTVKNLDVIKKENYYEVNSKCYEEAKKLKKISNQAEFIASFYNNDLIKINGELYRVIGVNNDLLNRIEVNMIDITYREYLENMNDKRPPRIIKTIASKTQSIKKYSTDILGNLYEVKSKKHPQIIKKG

[4] = molecular target: T4, SauCas9 WED (wedge-like) domain, His-tagged (Staphylococcus aureus)
T4 chain: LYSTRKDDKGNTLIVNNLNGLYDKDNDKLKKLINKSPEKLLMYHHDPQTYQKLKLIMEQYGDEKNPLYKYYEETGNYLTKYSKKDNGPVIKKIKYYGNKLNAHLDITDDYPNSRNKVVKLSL

B1: Staphylococcus haemolyticus AcrIIA13b, wild type, with C-terminal 6xHis tag (natural protein)
chain: MNELNNKMIEDVVLGEVELIEDLGQYFIDIEGDYEYNVEFATLSEVDYKVCALYEVATSKTYEVPYHDKLEKEDMKLFYDKWLEKDQQEETYIESVFFVNREDAESYIKDVLKGKESLTEVAAEIGYFELEHHHHHH
Kd [1]: 6.15 µM | Kd [2]: 3.83 µM | Kd [3]: 1.61 µM | Kd [4]: 8.17 µM
